Reference: article PMC3769348, “Secreted and Transmembrane 1A Is a Novel Co-Stimulatory Ligand” (PLoS ONE, 2013)

Target: T1, SECTM1B-Fc fusion protein (extracellular domain of murine SECTM1B fused to aglycosyl human IgG1 Fc) (mouse, UniProt Q9JL59 29-160, N-glycosylated)
T1 construct: Secreted and transmembrane 1B (SECTM1B), mouse, extracellular domain; The cDNA was cloned between a CD5 leader and the human IgG1 aglycosyl Fc in pEE12(CMV/T7)CD5Lhγ1; also called mSECTM1B-Fc; Secreted and transmembrane 1B; source: CHO-S cells, purified with protein G agarose (elution with glycine pH 2.0); not shown: Fc (human IgG1, aglycosyl mutant), C-terminal, kept
T1 sequence (looked up): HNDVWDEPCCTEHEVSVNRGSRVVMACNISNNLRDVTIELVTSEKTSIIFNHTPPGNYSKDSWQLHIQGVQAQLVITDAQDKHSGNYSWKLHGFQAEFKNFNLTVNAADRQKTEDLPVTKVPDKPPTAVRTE
Assay: SPR; BIAcore 3000, 25°C, CM5 chip; Fc fusion proteins held on separate flow cells by mouse anti-human IgG (SBH2) on amine-coupled rabbit anti-mouse antibody; Fc fusion proteins at 25 µM injected in HEPES-buffered saline pH 7.4 at 5 µl per minute
Details: both partners purified

B1: CD7-Fc fusion protein (extracellular domain of murine CD7 fused to aglycosyl human IgG1 Fc) (Fc fusion, mouse, UniProt P50283 24-150, looked up)
chain: QDVHQSPRLTIASEGDSVNITCSTRGHLEGILMKKIWPQAYNVIYFEDRQEPTVDRTFSGRINFSGSQKNLTITISSLQLADTGDYTCEAVRKVSARGLFTTVVVKEKSSQEAYRSQEPLQTSFSFP
modifications: N-glycosylated
notes: CD7, mouse, extracellular domain; The cDNA was cloned between a CD5 leader and the human IgG1 aglycosyl Fc in pEE12(CMV/T7)CD5Lhγ1; also called mCD7-Fc; source: CHO-S cells, purified with protein G agarose (elution with glycine pH 2.0); not shown: Fc (human IgG1, aglycosyl mutant), C-terminal, kept
binding result: binds
